# Results as given in the Human Domainome abundance scans (Beltran et al. 2025).
# ± gives the uncertainty stated by the source.
# B1: Transcription elongation regulator 1-like protein, residues 448 to 504; numbered along this chain, Q5VWI1 (parent)
# chain: LPLEERVTHFRDMLLERGVSAFSTWEKELHKIVFDPRYLLLNSEERKQIFEQFVKTR
# Variants of: B1
# Test: abundance fitness (aPCA) (normalised: wild type 0, dead -1); higher = more abundant; growth selection in yeast, the domain comes from the species named
# Settings: Homo sapiens
row,Variant,abundance fitness
1,F50N,0.347 ± 0.22
2,F50T,-0.924 ± 0.4
3,F50K,-0.835 ± 0.4
4,F50V,-0.833 ± 0.13
5,F50M,-0.605 ± 0.5
6,F50D,-0.624 ± 0.25
7,F50Y,0.082 ± 0.22
8,M13S,-0.743 ± 0.29
9,M13K,-0.555 ± 0.42
10,M13E,-0.582 ± 0.3
11,E44Q,-0.143 ± 0.11
12,E44S,-0.187 ± 0.12
13,E44T,-0.105 ± 0.084
14,E44K,0.094 ± 0.28
15,E44I,0.179 ± 0.37
16,E44M,0.253 ± 0.24
17,E44H,-0.415 ± 0.28
18,E44G,-0.211 ± 0.12
19,E44D,0.27 ± 0.17
20,K55N,-0.267 ± 0.2
21,K55E,0.209 ± 0.15
22,K55A,-0.266 ± 0.12
23,K55Q,-0.19 ± 0.1
24,K55L,-0.124 ± 0.1

row,Variant,abundance fitness
1,K55C,-0.382 ± 0.34
2,H9T,-0.456 ± 0.15
3,H9S,-0.073 ± 0.12
4,H9Q,0.232 ± 0.15
5,H9Y,-0.236 ± 0.2
6,H9F,-0.475 ± 0.48
7,H9D,-0.024 ± 0.43
8,F34D,0.351 ± 0.38
9,F34M,-0.04 ± 0.19
10,F34W,-0.343 ± 0.2
11,F34H,0.156 ± 0.35
12,F34T,0.245 ± 0.17
13,F34K,-0.063 ± 0.34
14,K47L,-0.286 ± 0.15
15,K47F,-0.04 ± 0.36
16,K47E,-0.58 ± 0.4
17,K47S,-0.627 ± 0.19
18,R17V,-0.434 ± 0.32
19,R17Q,-0.287 ± 0.42
20,R17M,-0.237 ± 0.27
21,R17F,-0.368 ± 0.47
22,R17C,-0.151 ± 0.17
23,G18W,-0.746 ± 0.25
24,G18V,-0.612 ± 0.26

row,Variant,abundance fitness
1,G18M,-0.96 ± 0.36
2,G18E,0.071 ± 0.12
3,G18L,-0.545 ± 0.15
4,G18T,0.098 ± 0.24
5,G18S,-0.33 ± 0.14
6,G18R,-0.316 ± 0.11
7,G18C,-0.714 ± 0.44
8,V7C,-0.568 ± 0.2
9,V7G,-0.407 ± 0.14
10,V7L,-0.096 ± 0.15
11,V7W,-0.594 ± 0.5
12,V7K,0.843 ± 0.13
13,L29I,0.281 ± 0.32
14,L29E,0.139 ± 0.076
15,L29K,0.158 ± 0.16
16,L29W,-0.986 ± 0.46
17,L29R,0.095 ± 0.13
18,E45Y,-0.557 ± 0.1
19,E45T,-0.515 ± 0.21
20,E45I,-0.242 ± 0.46
21,E45V,-0.858 ± 0.26
22,E45P,-0.791 ± 0.28
23,E45L,-0.067 ± 0.12
24,E45M,-0.107 ± 0.13

row,Variant,abundance fitness
1,Y38P,-0.653 ± 0.4
2,Y38T,-0.69 ± 0.34
3,Y38R,-0.669 ± 0.19
4,Y38L,-0.5 ± 0.15
5,Y38K,-0.275 ± 0.36
6,Y38M,-0.801 ± 0.46
7,E51G,-0.618 ± 0.16
8,E51Q,-0.255 ± 0.078
9,E51R,-0.594 ± 0.094
10,E51A,0.047 ± 0.099
11,E51L,-0.522 ± 0.081
12,E51K,-0.278 ± 0.085
13,L3I,0.427 ± 0.31
14,L3N,-0.031 ± 0.21
15,L3H,0.663 ± 0.21
16,L3F,0.04 ± 0.41
17,L3K,0.487 ± 0.15
18,L3P,-0.212 ± 0.4
19,L3E,0.132 ± 0.2
20,L3Q,0.591 ± 0.16
21,L3Y,0.138 ± 0.23
22,T8G,-0.35 ± 0.13
23,T8L,-0.471 ± 0.17
24,T8F,-0.291 ± 0.31

row,Variant,abundance fitness
1,T8S,-0.149 ± 0.12
2,D12E,0.274 ± 0.19
3,D12G,-0.381 ± 0.19
4,D12W,-0.059 ± 0.16
5,D12A,-0.335 ± 0.33
6,D12C,-0.578 ± 0.45
7,R6A,0.062 ± 0.2
8,R6S,-0.832 ± 0.34
9,R6M,-0.266 ± 0.47
10,R6W,-0.774 ± 0.38
11,R6K,-0.485 ± 0.15
12,R46T,-0.815 ± 0.24
13,R46A,-0.057 ± 0.12
14,R46F,-0.533 ± 0.45
15,R46W,-0.012 ± 0.16
16,R46S,-0.644 ± 0.23
17,A21E,-0.165 ± 0.17
18,A21R,-0.364 ± 0.19
19,A21F,-0.593 ± 0.23
20,A21T,-0.399 ± 0.3
21,A21K,-0.286 ± 0.11
22,A21Y,-0.482 ± 0.11
23,A21S,-0.303 ± 0.19
24,A21P,-0.114 ± 0.1

row,Variant,abundance fitness
1,E5A,-0.73 ± 0.24
2,E5P,-0.697 ± 0.19
3,E5L,-0.565 ± 0.12
4,E5T,-0.553 ± 0.46
5,E5K,-0.535 ± 0.41
6,H30W,-0.138 ± 0.19
7,H30E,-0.276 ± 0.29
8,H30Y,-0.337 ± 0.3
9,H30S,-0.585 ± 0.26
10,H30T,-0.492 ± 0.18
11,H30G,-0.505 ± 0.19
12,F53H,-0.466 ± 0.39
13,F53V,-0.797 ± 0.12
14,F53T,-0.964 ± 0.21
15,F53Y,0.15 ± 0.14
16,S20P,-0.535 ± 0.45
17,S20W,-0.371 ± 0.18
18,S20E,-0.563 ± 0.23
19,S20V,-0.691 ± 0.25
20,S20T,-0.38 ± 0.33
21,E16N,-0.657 ± 0.36
22,E16K,0.226 ± 0.24
23,E16M,-0.438 ± 0.16
24,E16C,-0.632 ± 0.22

row,Variant,abundance fitness
1,E16F,-0.568 ± 0.24
2,E16W,-0.646 ± 0.3
3,S43T,-0.197 ± 0.29
4,S43A,0.016 ± 0.078
5,S43V,-0.309 ± 0.18
6,S43E,0.341 ± 0.085
7,S43Q,0.07 ± 0.4
8,R11W,-0.365 ± 0.32
9,R11Q,-0.244 ± 0.15
10,R11F,-0.248 ± 0.4
11,R11S,-0.695 ± 0.32
12,R11K,-0.204 ± 0.21
13,R11Y,-0.259 ± 0.4
14,R11A,-0.544 ± 0.24
15,R11V,-0.626 ± 0.3
16,R11P,0.183 ± 0.22
17,K31V,-0.705 ± 0.12
18,K31P,-0.681 ± 0.27
19,K31L,-0.781 ± 0.38
20,F10A,-0.717 ± 0.14
21,F10G,-0.727 ± 0.11
22,F10M,-0.782 ± 0.2
23,F10C,-1.1 ± 0.32
